Legend:
Experiment in all cases: IEDB peptide-MHC binding, purified MHC/competitive/radioactivity; filed as Kd, often an IC50 or EC50 that approximates it; ≥ and ≤ were set here for values at or beyond the usual limits of such assays
HLA-A*03:01 = target: HLA-A*03:01
HLA-A*33:01 = target: HLA-A*33:01
HLA-A*11:01 = target: HLA-A*11:01
HLA-A*68:01 = target: HLA-A*68:01
HLA-A*31:01 = target: HLA-A*31:01
HLA-A*02:06 = target: HLA-A*02:06
[1] = source organism: Vaccinia virus WR
[2] = source organism: SARS coronavirus Tor2
[3] = source organism: Mammarenavirus machupoense
[4] = source organism: Mammarenavirus juninense

Row | Sequence | Kd (HLA-A*03:01; [1]) | Kd (HLA-A*33:01; [1]) | Kd (HLA-A*11:01; [1]) | Kd (HLA-A*68:01; [1]) | Kd (HLA-A*31:01; [1]) | further results
1 | SSTCSAVTDR | 11.4 µM | 0.708 µM | 173 nM | 87.4 nM | 123 nM | –
2 | ATSTRHPSK | – | – | – | – | – | Kd (HLA-A*03:01; [2]): 0.000599 µM; Kd (HLA-A*33:01; [2]): ≥ 77.7 µM; Kd (HLA-A*11:01; [2]): 9.8 nM; Kd (HLA-A*68:01; [2]): 275 nM; Kd (HLA-A*31:01; [2]): 623 nM
3 | ASTISWMMK | 0.0315 µM | ≥ 38.9 µM | 0.346 nM | 588 nM | 1820 nM | –
4 | KLDDVEKEK | 0.404 µM | ≥ 77.7 µM | 292 nM | ≥ 59900 nM | 4770 nM | –
5 | RASTTENAAY | 13.4 µM | ≥ 70 µM | 564 nM | 4630 nM | 2090 nM | –
6 | ESKAKQLCY | ≥ 78 µM | ≥ 77.7 µM | ≥ 77900 nM | 15900 nM | ≥ 77900 nM | –
7 | LSEYETMVDY | 5.27 µM | ≥ 70 µM | 16000 nM | ≥ 70200 nM | ≥ 70000 nM | –
8 | FAEESYTYYY | ≥ 26.3 µM | ≥ 70 µM | 916 nM | 543 nM | ≥ 70000 nM | –
9 | YTNEIIGYK | – | – | – | – | – | Kd (HLA-A*03:01; [2]): 0.00497 µM; Kd (HLA-A*33:01; [2]): 0.414 µM; Kd (HLA-A*11:01; [2]): 2.56 nM; Kd (HLA-A*68:01; [2]): 2.24 nM; Kd (HLA-A*31:01; [2]): 937 nM
10 | TAKVIKLVK | ≥ 52.3 µM | ≥ 77.7 µM | 985 nM | 4910 nM | 19900 nM | –
11 | IFNEDTSYY | 6 µM | ≥ 77.7 µM | 6890 nM | ≥ 20000 nM | ≥ 77900 nM | –
12 | KSIIIPFIAY | 0.968 µM | ≥ 31.7 µM | 249 nM | 17600 nM | 1370 nM | –
13 | DVDTSASEIK | 4.43 µM | 18.8 µM | 2630 nM | 135 nM | ≥ 27100 nM | –
14 | TAVAKCNQNH | – | – | – | – | – | Kd (HLA-A*03:01; [3]): ≥ 70 µM; Kd (HLA-A*33:01; [3]): ≥ 68.8 µM; Kd (HLA-A*11:01; [3]): ≥ 69700 nM; Kd (HLA-A*68:01; [3]): ≥ 70100 nM; Kd (HLA-A*31:01; [3]): ≥ 70000 nM
15 | IVAIDLDPV | – | – | – | – | – | Kd (HLA-A*02:06; source organism: Dengue virus 1 Brazil/97-11/1997): 11.2 nM
16 | NQILEENVEV | – | – | – | – | – | Kd (HLA-A*02:06; source organism: Dengue virus 2 Jamaica/1409/1983): 56.1 nM
17 | MVGLLSNSPH | – | – | – | – | – | Kd (HLA-A*03:01; [4]): ≥ 30 µM; Kd (HLA-A*33:01; [4]): 4.28 µM; Kd (HLA-A*11:01; [4]): ≥ 41400 nM; Kd (HLA-A*68:01; [4]): 661 nM; Kd (HLA-A*31:01; [4]): 2890 nM
